The chains are these.
B1: wild-type PAP257–273 [human] / itself (parent)
chain: RLQGGVLVNEILNHMKR

In this assay the parent is B1. The assay is described as follows: ThT assay (amyloid fibril formation, self-assembly). The note with it: with itself; peptide 3 mg/ml, agitated at 1400 rpm at 37 °C for 48 h; parent: 5.5e+03; read off a plot.
In the case of chain 1 Q3A, the response was 5100. As to chain 1 M15A, the response came to 1400. Take chain 1 L12A: the response was found to be 11000.

As to chain 1 L2A, the response turned out to be 7800. chain 1 V8A: the response was determined as 200. Take chain 1 R17A: the response was determined as 8300.

Values taken from article PMC6048764, “Myricetin antagonizes semen-derived enhancer of viral infection (SEVI) formation and influences its infection-enhancing activity” (Retrovirology, 2018).
